Source: publication PMC6311151 (Biochimica et biophysica acta. Molecular and cell biology …, 2018)

Target: the molecule itself
Assay: SEC

B1: Gloeobacter ligand-gated ion channel (natural protein)
chain: QDMVSPPPPIADEPLTVNTGIYLIECYSLDDKAETFKVNAFLSLSWKDRRLAFDPVRSGVRVKTYEPEAIWIPEIRFVNVENARDADVVDISVSPDGTVQYLERFSARVLSPLDFRRYPFDSQTLHIYLIVRSVDTRNIVLAVDLEKVGKNDDVFLTGWDIESFTAVVKPANFALEDRLESKLDYQLRISRQYFSYIPNIILPMLFILFISWTAFWSTSYEANVTLVVSTLIAHIAFNILVETNLPKTPYMTYTGAIIFMIYLFYFVAVIEVTVQHYLKVESQPARAASITRASRIAFPVVFLLANIILAFLFFGF
stoichiometry N: 5
